Measured values from the RNAGym collection of RNA variant scans (doi:10.1073/pnas.2313332121).

B1: TPR t1 (parent)
chain: GACCAAUCUGCCCUCAGAGCUCGAGAACAUCUUCGGAUGCAGAGGAGGCAGGCUUCGGUGGCGCGAUAGCGCCAACGUCCUCAACCUCCAAUGCAUCCCACCACAUGAUGAUGCCUGAAGAGCCUUGGUUUUUUG

Variants of: B1
Experiment: polymerase ribozyme fitness, log enrichment relative to wild type (log ratio); higher = more active; in vitro selection for triplet polymerase activity
Procedure, shortened: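 Libraries of mutants in each subunit of a heterodimeric triplet polymerase ribozyme were generated by PCR and transcribed. In triplicate, each went through one in vitro selection round: annealing with biotinylated primer, partner subunit and triplets; frozen incubation at −7 °C; gel excision of extended constructs; streptavidin-bead capture; RT-PCR. Fitness, taken from Illumina sequencing of input and output libraries, is the logarithm of a genotype's enrichment over wild-type enrichment, averaged across replicates with inverse-variance weights. The logarithm is base 2, and genotypes needed ≥10 input reads and ≥1 read per output to be kept.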

Variant | polymerase ribozyme fitness (log ratio)
GACCAAUCUUCCCUCAGAGCUCGAGAACAUCUUCGGAUGCAGAGGAAGCAGGCUUCGGUGGCGCGAUAGCGCCAACGUCCUCAACCUCCAAUGCAUCCCACCACAUGAUGAUGCCUGAAGAGCCUUGGUUUUUUG [G10U G47A] | -0.776
GACCAAUCUGCCCUCAGAGCACGAGAACAUCUUCGGAUGCAGAGGAGGGAGGCUUCGGUGGCGCGAUAGCGCCAACGUCCUCAACCUCCAACGCAUCCCACCAUAUGAUGAUGCCUGAAGAGCCUUGGUUUUUUG [U21A C49G U92C C104U] | -2.2
GACCAAUCUGCCCUCAGAGCUCGAGAACAUCUUCGGAUGCAGAGGAGGAAGACUUCAGUGGCGCGAUAGCGCCAACGACCUCAACCUCCAAUGCAUCCCACCACAUGAUGAUGCCUGAAGAGCCUUGGUUUUUUG [C49A G52A G57A U78A] | -1.73
GACCAAUCUGCCGUCAGAGCUCGAGAACAUCUUCGGAUGCAGAGGAGGCAGGCUUGGGUGGCGCGAUAGCGCCAACGUCCUCAACCUCCAAUGCAUCCCAUCACAUGAUGAUGCCUGAAGAGCCUUGGUUUUUUG [C13G C56G C101U] | -2.67
GACCAAUCUGCCCUCAGAGCUCGAGAACAUCUUCGGAUGCAGAGGCGGCACGCUUCGGUGGCGCGAUAGCGCCAACGUCCUCAACCUCCAAUGCAUCCCACCACAUGAUGAUGCCUGAAGAGCCUUGGUUUUUUG [A46C G51C] | -4.63
GACCAUCCUGCCCUCAGAGCUCGAGAACAUCUUCGGAUGCAGAGGAGGCAGGCUUCGGUGGCGCGAUAGAGCCAAGGUCCUCAACCUCCAAUGCAUCCCACCACAUGAUGAUGCCUGAAGAGCCUUGGUUUUUUG [A6U U7C C70A C76G] | -2.57
GACCAAUCUGCCCUCAGAGCUCGAGAAUAUCUUCGGAUGUAGAGGAGGCACGCUUCGGUGGCGCGAUAGCGCCAAAGUCCUCAACCUCCAAUGCAUCCCACCACAUGAUGAUGCCUGAAGAGCCUUGGUUUUUUG [C28U C40U G51C C76A] | -6.21
GACCAAUCUGCCCUCAGAGCUCGAGAACAUCUUCGGAUGGAGAGUAGGCAGGCUUCGGUGGCGCGAUAGCGCCAACGUCCUCAACCUCCAAUGCAUCCCACCACAAGAUGAAGCCUGAAGAGCCUUGGUUUUUUG [C40G G45U U106A U112A] | -0.392
GACCAAUCUACCCUCAGAGCUCGAGAACAUCUUCGGAUGCAGAGGAGGCAGGCUGCGGUGGCGCGAUAGCGCCAACGUCCUCAACCUCCAAUGCAUCCCACCACAUGAUGAUGCCUGAAGAGCCUUGGUUUUUUG [G10A U55G] | -0.319
GACCAAUCUGCCCUCAGAGCUCGAGAACAUCUUCGGAUGCAGAGGAGGCAGGCUUCGGUGGCGCGAUAGCGCCAACGUCCUCAACCUCCAAUGCAUCCCAUCACAUGAUGAUGCCUGAAGAACCUUGGUUUUUUG [C101U G122A] | -1.06
GACCAAUCUGCCCUCAGAGCUCGAGAACAUCUUCGGAUGCAGAGGAGGCAGGCUUCGGUGGCGCGAUACCGCCAACGUCCUCAACCUCCAAUGUAUCCCACCACAUGAUGAUGCCUGAAGAGCCUUGGUUUUUUG [G69C C94U] | -1.35
GUCCAAACUGCCCUCAGAGCUCGAGAACAUCUUCGGAUGCAGAGGCGACAGGCUUCGGUGGCGCGAUAGCGCCAACGUCCUAAACCUCCAAUGCAUCCCACCACAUGAUGAUGCCUGAAGAGCCUUCGUUUUUUG [A2U U7A A46C G48A C82A G127C] | -4.28
GACCAAUCUGCCCUGAGAGCUCGAGAACAUCUUCGGAUGCAGAGGAGGCAGGCUUCGGUGGCGCGAUAGCGCCAACGUCCUCAACUUCCAAUGCAUCCCACCACAUGAUAAUGCCUGUAGAGCCUUGGUUUUUUG [C15G C86U G110A A118U] | -3.91
GACCAAUCUGCCCUCAGAGCUCGAGAACAUCUUCGGAUGCAGAGGAGGCAGGCUUCGGUGUCGCGAUACCGUCAACGUCCUCAACCUCCAAUGCAUCCCACCACAUGAUGCUGCCUGAAGAGCCUUGGUUUUUUG [G61U G69C C72U A111C] | -6.94
GACCAAUCAGCCCUCAGAGCUCGAGAACAUCUUCGGAUGCAGAGGAGGCAGGCUUCGGUGGCGCGAUAGCGCCAACGUCCUCAAUCUCCAAUGCAUCCCACCACAUGAUGAUGCCUGAAGAGCCUUGGUUUUUUG [U9A C85U] | 0.475
GACCAAUCUGACCUCAGAGCUCGAGAAGAUCUUCGGAUGCAGAGGAGGCAGGCUUCGGUGGCGCGAUAGCGCCAACUUCCUCAACCUCCAAUGCAUCUCACCACAUGAUUAUGCCUGAAGAGCCUUGGUUUUUUU [C11A C28G G77U C98U G110U G135U] | -3.7
GACCAAUCUGCCCUCAGAGCUCGAGAACAUCUUCGGAUGCAGAGGAGGCAGGCUUCGGUGGCGCGAUAGCCCCAACGUCCUCAACCUCCAAUGCAUCCCACCACAUGAUGAAGCCUGAAGAGCCUUGGUUUUAUG [G71C U112A U133A] | 0.204
GACCAAUCUGCCCUCAGAGCUCGAGAACAUCUUCGGAUGCAGAGGAGGCAGGCUUCGGUGGCGCGAUAGCGCCAACGUCCUCAACCUCCAAUGCAUCCCACCACAUGGUGAUGCCAGAAGAGUCUUGGUUUUUUG [A108G U116A C123U] | -6.42
GACCAAUCUGCCCUGAGAGCUCGAGAACAUCUUCGGAUGCAGAGGAGGCAGGCUUCGGUGGCGCGAUAGCGCCAACGUCCUCAACCUCCAAUGCAUCCCUCCACAUGAUGAUGCCUGAAGAGCCUUGGUUUUUUG [C15G A100U] | -4.44
GACCAAUCUGCCCUCAGAGCUCGUGAACAUCUUCGGAUGCAGAGGAGGCAGGCUUCGGUGCCGCGAUAGCGCCAACGUCCUCAACCUCCAAUGCAUCCCACCACAUGAUGAUGCCUGAAGAGCCUUGGUUUUUUG [A24U G61C] | -7.27
GACCAAUCUCCCCUCAGAGCUCGAGAACAUCUUCGGAGGCAGAGGAGGCAGGGUUCGGUGGCCCGAUAGCGCCAACGUCCUCAACCUCCAAUGCAUCCCACCACAUGAUGUUGCCUGAAGAGCUUUGGUUUUGUG [G10C U38G C53G G63C A111U C124U U133G] | -5.15
